# Laboratory results reported in patent publication US20230183305A1, “KERATIN BD-11, PREPARATION METHOD THEREFOR AND PHARMACEUTICAL COMPOSITION AND USE THEREOF” (INSTITUTE OF MATERIA MEDICA, CHINESE ACADEMY OF MEDICAL …, priority 2019, published 2023).
# Columns and labels:
# [1] = test system: lipopolysaccharide (LPS) induced fever in SD rats; experiment: Lipopolysaccharide (LPS) induced fever model in SD rats; assay type: in vivo, rat; details: for Body temperature 2 hours after modeling: 2 h after LPS 20 µg/kg i.p.; for Body temperature 2 hours after modeling / Body temperature 4 hours after modeling / Body temperature 6 hours after modeling / Body temperature 8 hours after modeling: n=8; for Body temperature 4 hours after modeling: 4 h after LPS 20 µg/kg i.p.; for Body temperature 6 hours after modeling: 6 h after LPS 20 µg/kg i.p.; for Body temperature 8 hours after modeling: 8 h after LPS 20 µg/kg i.p.
# Method: • Animals: 230-260 grams of male SD rats; • Drugs: lipopolysaccharide (LPS, SIGMAL-2880), aspirin (SIGMA A2093), protein BD-11; • Instruments: electronic balance (SARTORIUS BP121S type), electronic clinical thermometer (CITIZEN CT-513W type).
# Experiment grouping: • Normal control group; • Model group: lipopolysaccharide fever model; • Positive control group: Aspirin 300 mg/kg group; • Protein BD-11, 10 mg/kg group, 50 mg/kg group. Method: the method of intraperitoneal injection of Lipopolysaccharide to replicate rat fever model.
# Preparation of experimental animals: After the experimental animals adapt to the experimental environment (temperature 22° C.±2° C., relative humidity 50%±2%) for 1 day. Pre-adaptation to measure rectal temperature at 8:00 and 15:00, rats were fasted and water was taken freely 12 h before experiment, and let the animal to empty its feces before measuring the rectal temperature. Apply petroleum jelly to the electronic thermometer probe before each temperature measurement. Insert the rat rectum 2 cm (can be marked at 2 cm to ensure that the depth of each insertion is consistent), and record the body temperature after the reading is stable.
# Intraperitoneal injection of lipopolysaccharide to replicate rat fever model: The body temperature of the rats was measured before modeling. Qualified rats with a body temperature of 36.2-37.3° C. were selected and randomly divided into groups with 8 rats in each group. After oral administration of aspirin and different doses of protein BD-11, lipopolysaccharide (20 µg/kg, 2 ml/kg) was injected intraperitoneally immediately, and the normal control group was injected intraperitoneally with an equal volume of normal saline. The body temperatures of the rats were monitored after 2 hours for a total of 8 hours.
# According to the body temperature measured at each time point on the day of the experiment, calculate the mean, standard deviation and standard error of the body temperature of each group of rats. The data of each group was compared with TTEST, and P<0.05 was considered as a significant difference.
# Immediately after oral administration of aspirin (300 mg/kg), protein BD-11 (10 mg/kg, 50 mg/kg), intraperitoneal injection of 20 µg/kg lipopolysaccharide was performed to establish a model. The animal body temperature was monitored at 2 hours, 4 hours, 6 hours, and 8 hours after modeling.
# [2] = test system: PLO-induced epilepsy in ICR mice; experiment: Pilocarpine (PLO) induced convulsive epilepsy in mice; assay type: in vivo, mouse; parameters: mortality rate: unit not given here; details: for Cases of deaths / Grade IV seizure rate / mortality rate / Cases of Grade IV: PLO 225 mg/kg i.p., 10 mice; for Cases of Grade IV: 30 min observation; for Grade II seizure incubation period / Grade III seizure incubation period / Grade IV seizure incubation period: mean±SEM; for Grade IV seizure incubation period: no Grade IV recorded as maximum 1800 s
# Method: • Animals: male ICR mice; • Drugs: Pilocarpine HCl (PLO, pilocarpine, pilocarpine hydrochloride), Diazepam (diazepam tablets), protein BD-11.
# Experiment grouping: • Model group: • Diazepam 2 mg/kg group; • Protein BD-11, 50 mg/kg group, 200 mg/kg group.
# The drug was administered once in the afternoon the day before modeling, PLO-225 mg/kg (modeling agent) was injected intraperitoneally 1 hour after the test drug was administered intragastrically on the day of modeling. And positive drug can be administered once 20 minutes before modeling. Observe for 30 minutes after PLO injection.
# Observation indicators: ①Seizure situation: the time of seizures from Grade II to Grade IV; (2)the time to death.
# Seizure grade: Refer to Racine grading standard: Grade 0: No response; Grade I: manifested as twitching of facial muscles or the corners of the mouth; Grade II: can nod; Grade III: twitching of one limb; Grade IV: rigidity or body twitching; Grade V: generalized epilepsy (generalized tonic seizures).
# Count the number of Grade IV seizures and deaths in each group of mice in the experiment; Grade II, III and IV incubation period. […] Chi-square test was used for statistics of the number of cases. The mean value and standard error of the incubation period were calculated, and TTEST was used to compare the model group with other groups. P<0.05 was considered as a significant difference.
# [3] = test system: tracheal phenol red excretion in ICR mice; experiment: Expectorant test, phenol red excretion method in mice; assay type: in vivo, mouse; details: for Phenol red excretion: X±SEM, n=10
# Method: • Animals: male ICR mice; • Drugs and reagents: Mucosolvan (ambroxol hydrochloride tablets), phenol red, sodium bicarbonate, protein BD-11; • Instruments: centrifuge (Sigma-3K15 type), balance (XS105DU type), Microplate tester (BIO-TEK type).
# Experiment grouping: • Solvent control group; • Mucosolvan 30 mg/kg group; • Protein BD-11, 20 mg/kg group, 50 mg/kg group.
# The animals were fasted and water was taken freely 16 hours before the experiment. Orally administered Mucosolvan and different doses of protein BD-11 (administration volume 10 ml/kg) in groups, and the solvent control group was given the same volume of distilled water. One hour later, 2.5% phenol red solution was injected intraperitoneally. Mice were sacrificed by neck dislocation after 30 minutes. Take a trachea from below the thyroid cartilage to the branch of the trachea, and put the trachea into 3 ml 5% NaHCO3 solution and let it stand for 3 hours. Take 1 ml of the supernatant and centrifuge at 3000 rpm for 5 minutes. Measure and record the absorbance at 546 nm. According to the standard curve of phenol red, the excretion of phenol red was calculated.
# Record the time point of oral administration, the time point of intraperitoneal injection of 2.5% phenol red solution, and the time point of taking the trachea respectively; The absorbance of each group of samples was measured by the microplate reader at 546 nm, Calculate the excretion of phenol red according to the standard curve of phenol red. Calculate the mean and standard error of the data in each group, and use TTEST to compare the solvent control group with other groups, and P<0.05 is considered as a significant difference.
# Give Mucosolvan (30 mg/kg) and different doses of protein BD-11 (20 mg/kg, 50 mg/kg). One hour later, 2.5% phenol red solution was intraperitoneally injected, and 30 minutes later, the mice were sacrificed by neck dislocation. Take the trachea from below the thyroid cartilage to the branch of the trachea, put the trachea into 3 ml of 5% NaHCO3 solution and let it stand for 3 hours, take 1 ml of supernatant, centrifuge at 3000 rpm for 5 minutes, measure and record the absorbance at 546 nm. According to the standard curve of phenol red, the excretion of phenol red was calculated.
molecule,measurement,setting,value
"BD-11: recombinant keratin, amino acid sequence SEQ ID NO:1, expressed in E. coli, band around 59 kD; Example 4 batch tested (protein, listed as Bos taurus) MSRQSTITFQTSSRRGFSTASATTPATSRSRFSSASVTHSPAGSGGLGRISGFGSRSLYNLGGTKRVSISGCGSNFRSGFGGRASSGFGVSGGFGYGGGIGGGHGGCGFSVCPPGGIQEVTVNQSLLTPLNLQIDPNIQRVRKEEREQIKTLNNKFASFIDKVRFLEQQNKVLETKWSLLQEQGTRTVRQSLEPFFEAYITDLRRQLDSITTERGRLDAELRTMQDVVEDFKVRYEDEINKRTAAENEFVALKKDVDAAYLNKVDLEAKANSLTDEINFLQMLFEAELCQMQTRVSDTSVVLSMDNNRSLDLDSIIAEVKAQYEEIANRSRAEAESWYQTKYEELQVTAGQHGDDLRNTKQEISETNRMIQRLRAEIDNVKKQCASLQTAIADAEQRGELALKDARAKLVDLEEALQKSKQDMARLLREYQELMNIKLALDVEIATYRKLLEGEECRLSGEGVSPVNISVVTSTVSSGYGGGSSIGSGSLGLSGGSGCSFMTSGGHSLGGSSFSNSSSRGLGGSGSSFKFVSTTSSSRKSYKH",Effect on increase in body temperature (summary),"[1]; 2, 4, 6 and 8 hours after modeling, dose not given",significantly inhibit the increase in body temperature
same,Body temperature 2 hours after modeling,[1]; BD-11 10 mg/kg oral,37.2±0.2 °C
same,Body temperature 4 hours after modeling,[1]; BD-11 10 mg/kg oral,37.7 °C
same,Body temperature 6 hours after modeling,[1]; BD-11 10 mg/kg oral,37.6 °C
same,Body temperature 8 hours after modeling,[1]; BD-11 10 mg/kg oral,37.4±0.1 °C
same,Body temperature 2 hours after modeling,[1]; BD-11 50 mg/kg oral,37.3 ± 0.1 °C
same,Body temperature 4 hours after modeling,[1]; BD-11 50 mg/kg oral,37.5 ± 0.2 °C
same,Body temperature 6 hours after modeling,[1]; BD-11 50 mg/kg oral,37.7 °C
same,Body temperature 8 hours after modeling,[1]; BD-11 50 mg/kg oral,37.7±0.2 °C
same,Effect on body temperature of model rats,"[1]; BD-11 10, 50 mg/kg oral, 2 hours after modeling","tendency to lower the body temperature of model rats 2 hours after modeling, but there is no statistically significant"
same,Cases of deaths,[2]; BD-11 50 mg/kg intragastric,0
same,Grade IV seizure rate,[2]; BD-11 50 mg/kg intragastric,50%
same,mortality rate,[2]; BD-11 50 mg/kg intragastric,0
same,Cases of Grade IV,[2]; BD-11 50 mg/kg intragastric,5
same,Grade II seizure incubation period,"[2]; BD-11 50 mg/kg, PLO model",95 ± 6 s
same,Grade III seizure incubation period,"[2]; BD-11 50 mg/kg, PLO model",164 ± 10 s
same,Grade IV seizure incubation period,"[2]; BD-11 50 mg/kg, PLO model",1357 ± 154 s
same,"Incubation period of epilepsy Grade III, comparison with model group","[2]; BD-11 200 mg/kg dose group, PLO model",statistically different from the model group
same,Cases of deaths,[2]; BD-11 200 mg/kg intragastric,0
same,Grade IV seizure rate,[2]; BD-11 200 mg/kg intragastric,60%
same,mortality rate,[2]; BD-11 200 mg/kg intragastric,0
same,Cases of Grade IV,[2]; BD-11 200 mg/kg intragastric,6
same,Grade II seizure incubation period,"[2]; BD-11 200 mg/kg, PLO model",96 ± 6 s
same,Grade III seizure incubation period,"[2]; BD-11 200 mg/kg, PLO model",164 ± 7 s
same,Grade IV seizure incubation period,"[2]; BD-11 200 mg/kg, PLO model",1114 ± 191 s
same,Effect on incubation period of Grade III epilepsy in mice (summary),[2]; dose not given,significantly prolong the incubation period of Grade III epilepsy
same,Phenol red excretion,[3]; BD-11 20 mg/kg oral,0.670 ± 0.082 µg/mL
same,Excretion of phenol red vs solvent control group,"[3]; BD-11 50 mg/kg dose group, P<0.05",significantly increased the excretion of phenol red
same,Phenol red excretion,[3]; BD-11 50 mg/kg oral,0.781 ± 0.043 µg/mL
same,Expectorant effect (summary),[3]; dose not given,obvious expectorant effect
